Here are results for two molecules from patent US6465423 (CENTRAL SYDNEY AREA HEALTH SERVICE, dated 2002).

B1: acid-labile sub-unit (ALS) of insulin like growth factor binding protein complex (other, human, UniProt P35858 28-605, looked up)
chain: ADPGTPGEAEGPACPAACVCSYDDDADELSVFCSSRNLTRLPDGVPGGTQALWLDGNNLSSVPPAAFQNLSSLGFLNLQGGQLGSLEPQALLGLENLCHLHLERNQLRSLALGTFAHTPALASLGLSNNRLSRLEDGLFEGLGSLWDLNLGWNSLAVLPDAAFRGLGSLRELVLAGNRLAYLQPALFSGLAELRELDLSRNALRAIKANVFVQLPRLQKLYLDRNLIAAVAPGAFLGLKALRWLDLSHNRVAGLLEDTFPGLLGLRVLRLSHNAIASLRPRTFKDLHFLEELQLGHNRIRQLAERSFEGLGQLEVLTLDHNQLQEVKAGAFLGLTNVAVMNLSGNCLRNLPEQVFRGLGKLHSLHLEGSCLGRIRPHTFTGLSGLRRLFLKDNGLVGIEEQSLWGLAELLELDLTSNQLTHLPHRLFQGLGKLEYLLLSRNRLAELPADALGPLQRAFWLDVSHNRLEALPNSLLAPLGRLRYLSLRNNSLRTFTPQPPGLERLWLEGNPWDCGCPLKALRDFALQNPSAVPRFVQAICEGDDCQPPAYTYNNITCASPPEVVGLDLRDLSEAHFAPC
modifications: glycoprotein (N-linked carbohydrate); 125I-iodinated (chloramine-T) where used as tracer
notes: mature; 84/86 kDa doublet on SDS-PAGE; In some experiments partially pure ALS or serum fractions (peak B) were used; also called ALS tracer
B2: 28K IGF-binding protein BP-28 (other, human, UniProt P08833 26-259, looked up)
chain: APWQCAPCSAEKLALCPPVSASCSEVTRSAGCGCCPMCALPLGAACGVATARCARGLSCRALPGEQQPLHALTRGQGACVQESDASAPHAAEAGSPESPESTEITEEELLDNFHLMAPSEEDHSILWDAISTYDGSKALHVTNIKKWKEPCRIELYRVVESLAKAQETSGEEISKFYLPNCNKNGFYHSRQCETSMDGEAGLCWCVYPWNGKRIPGSPEIRGDPNCQIYFNVQN
notes: mature; also called purified amniotic fluid BP-28

The target of assay [1] is T1, Cross-linked BP-53-IGF-I tracer (covalent complex of BP-53 with [125I]IGF-I) (human, UniProt P17936 28-291; P05019 49-118, 125I-iodinated; cross-linked to BP-53 with disuccinimidyl suberate; glycoprotein; cross-linked to IGF-I with disuccinimidyl suberate).
T1 construct: mature; About 60K; Used as tracer in the routine ALS assay; also called covalent BP-53-IGF-I complex; cross-linked tracer
The assay is described as follows: routine ALS assay, Superose-12, no serum added. How it is done: The routine assay for ALS activity was developed, based on the conversion of a covalent BP-53-IGF-I complex of approximately 60K to 150K form in the presence of ALS.
(§1) Samples to be tested for ALS activity were diluted to 200 μL in buffer containing 50 mmol/L sodium phosphate, 0.15 mol/L NaCl, and 0.2 g/L sodium azide, pH 6.5, with 10 g/L bovine albumin. Cross-linked BP-53-IGF-I tracer (~80,000 cpm; 4 ng) was added in 50 μL of the same buffer. After 25–30 min. of incubation at 22° C., 200 μL of the mixture was applied using a V-7 injector valve (Pharmacia) to a Superose-12 gel permeation column eluting at 1.0 mL/min (~2 megapascal pressure) in assay buffer without albumin. The column was calibrated with rabbit immunoglobulin G (Pentex; ~150K), which eluted mainly in fractions 22~24, peaking in fraction 23; BP-53-IGF-I tracer (~60K), which eluted mainly in fractions 25–27, peaking in fraction 26; IGF-I tracer bound to BP-28 (~35K, peaking in fraction 28); and IGF-I tracer (7.5K, peaking in fraction 33). Plotted as log (molecular mass) vs. elution volume, these four markers yielded a linear calibration curve (not shown). As a quantitative index of ALS activity (i.e. the degree of conversion of BP-53 to the 150K complex), the total radioactivity in fractions 22–24 was divided by that in fractions 25–27 to give a 150K/60K ratio. The values of this ratio typically varied between 0.1 and 2.0. […]

Assay [2] concerns the target B1. In words: competition with cross-linked BP-53-IGF-I tracer in the routine ALS assay. How it is done: as §1, with “2.0. The coefficient of variation of the 150K/60K ratio, based on analysis of variance of eight duplicate measurements covering a wide range of values, was 3.2%.” for “2.0.”

T1 sequence (P17936 28-291, chain 1 of 2): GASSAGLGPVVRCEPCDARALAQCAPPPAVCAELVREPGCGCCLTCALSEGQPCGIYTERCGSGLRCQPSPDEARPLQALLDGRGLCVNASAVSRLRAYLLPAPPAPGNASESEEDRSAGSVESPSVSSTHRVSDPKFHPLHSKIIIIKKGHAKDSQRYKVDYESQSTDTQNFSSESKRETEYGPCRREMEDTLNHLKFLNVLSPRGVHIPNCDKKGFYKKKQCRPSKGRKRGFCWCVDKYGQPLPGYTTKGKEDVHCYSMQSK
T1 sequence (P05019 49-118, chain 2 of 2): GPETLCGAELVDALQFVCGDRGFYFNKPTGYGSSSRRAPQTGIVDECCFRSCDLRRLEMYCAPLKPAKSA

For B1, the 150K/60K ratio in assay [1] is roughly 1.

B2: in assay [2], the binding result was “no binding (tested: 0.8 µg/mL)”.
